In publication PMC8101487 (Molecular Biology of the Cell, 2021):

Target: T1, Frq1 (S. cerevisiae, UniProt Q06389 1-190)
T1 sequence (looked up): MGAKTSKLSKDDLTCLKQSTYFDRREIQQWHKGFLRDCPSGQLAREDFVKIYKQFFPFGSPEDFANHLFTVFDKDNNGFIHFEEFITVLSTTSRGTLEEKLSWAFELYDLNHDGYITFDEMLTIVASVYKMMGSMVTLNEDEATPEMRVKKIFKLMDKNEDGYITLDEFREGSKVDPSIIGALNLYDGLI
Assay: SEC

binding result: binds
B1: Pik1(121-174) peptide (peptide, UniProt P39104 121-174, looked up)
peptide: ASYGFQVARRVLNNLQTNLFNTSSGSDKNVKIHENVAPALVLSSMIMSAIAFPQ
